Experimental data reported in publication PMC12362618, “Development of the First Small-Molecule Inhibitor Targeting Oncostatin M for Treatment of Breast Cancer” (Journal of Medicinal Chemistry, 2025).

Molecular target: T1, immobilized OSM (Homo sapiens, UniProt P13725)
T1 construct: purchased R&D Systems 671-GP
T1 sequence (P13725 26-212 limits assumed): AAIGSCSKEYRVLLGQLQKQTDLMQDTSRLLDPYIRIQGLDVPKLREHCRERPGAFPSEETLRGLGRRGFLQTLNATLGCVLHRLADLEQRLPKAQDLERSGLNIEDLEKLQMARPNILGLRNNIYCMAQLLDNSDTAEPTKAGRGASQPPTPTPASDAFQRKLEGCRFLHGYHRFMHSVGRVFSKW
Test: SPR binding kinetics of gp130 on immobilized OSM
Conditions: 25 °C
Experimental: SPR assays were used to investigate the ability of SMI-10B13 to disrupt the binding of the OSM receptor. We began our SPR assays by replicating the gp130-to-immobilized OSM binding kinetic experiment published by Chollangi et al. to evaluate the reliability of our setup. In this experiment, increasing concentrations of gp130 were injected, and the association and dissociation phases were monitored. […] However, the signal generated was insufficient for meaningful results, likely due to the suboptimal availability of accessible binding sites for […], although maximum feasible concentrations of both immobilized and injected gp130 were reached. As a result, we shifted our focus to assess whether SMI-10B13 could influence the recruitment of gp130 to OSM in a surface competition binding assay. […] While this effect could be justified by site II competitive binding at high SMI concentrations, the NMR CSP experiments are indicative of SMI binding at site III (Figure ). […]
SPR experiments were performed on a Reichert SR7000 instrument that was fed by a Surveyor LC autosampler and pump. […] The real-time changes in refractive index units of the association and dissociation phases were monitored. […]

B1: gp130: glycoprotein 130 receptor subunit (R&D Systems, cat. #671-GP) injected over immobilized OSM in SPR (protein)
chain: ELLDPCGYISPESPVVQLHSNFTAVCVLKEKCMDYFHVNANYIVWKTNHFTIPKEQYTIINRTASSVTFTDIASLNIQLTCNILTFGQLEQNVYGITIISGLPPEKPKNLSCIVNEGKKMRCEWDGGRETHLETNFTLKSEWATHKFADCKAKRDTPTSCTVDYSTVYFVNIEVWVEAENALGKVTSDHINFDPVYKVKPNPPHNLSVINSEELSSILKLTWTNPSIKSVIILKYNIQYRTKDASTWSQIPPEDTASTRSSFTVQDLKPFTEYVFRIRCMKEDGKGYWSDWSEEASGITYEDRPSKAPSFWYKIDPSHTQGYRTVQLVWKTLPPFEANGKILDYEVTLTRWKSHLQNYTVNATKLTVNLTNDRYLATLTVRNLVGKSDAAVLTIPACDFQATHPVMDLKAFPKDNMLWVEWTTPRESVKKYILEWCVLSDKAPCITDWQQEDGTVHRTYLRGNLAESKCYLITVTPVYADGPGSPESIKAYLKQAPPSKGPTVRTKKVGKNEAVLEWDQLPVDVQNGFIRNYTIFYRTIIGNETAVNVDSSHTEYTLSSLTSDTLYMVRMAAYTDEGGKDGPEFTFTTPKFAQGEIE
In the case of B1, the Kd is reported as 20.5 nM.
